Assay results taken from the supplement of paper PMC9170038.

Test system: MS2 coat protein
Experiment: apparent KD of MS2 coat protein; designed switch direction (-1 OFF switch, 1 ON switch): -1; higher = weaker reporter binding
Method in brief: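 For each design, the apparent KD is the median over clusters of curves fitted to normalised cluster fluorescence. Clusters held RNA switches with common flanks, transcribed on Illumina chips by stalled E. coli RNA polymerase. These were titrated with SNAP-549-labelled MS2 coat protein, doubling from 0.7 or 1.5 nM to 3 µM, without input, with 200 uM small-molecule ligand, or with an oligonucleotide input.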

[1] = Eterna round: R95, input ligand: microRNA oligo, concentration not stated
[2] = Eterna round: R95, input ligand: FMN 200 uM
[3] = Eterna round: R95, input ligand: none
[4] = input ligand: microRNA oligo, concentration not stated

Sequence	apparent KD of MS2 coat protein [1] [nM]	apparent KD of MS2 coat protein (input ligand: FMN 200 uM) [nM]	apparent KD of MS2 coat protein (input ligand: none) [nM]	further results
GGAUCUUGGGUCAGGAUAUGCUGAUAUUUUUGUCAGCAGAAGGGACAUGAGGAUCACCCAUGUGCUUGGUUUUG [Magic-16] (puzzle: Brourd's mod of Exclusion 4)	12.6			
UUGGAACGAGGAUAUCGAUGGUGGAACAUGAGGAUCACCCAUGUAUGAGAUAGUGUAGUUCGAGAAGGCGUUAAGU [JR_E5_Sub054] (puzzle: Exclusion 5)	40.3			apparent KD of MS2 coat protein [2]: 24.1 nM; apparent KD of MS2 coat protein [3]: 48.9 nM
AGUAGGAGAGGAUAUACAAGAAGUCGAAAGACUUCAACUCAACAUGAGGAUCACCCAUGUAGAAGGCUCCUACA [Omei Ex2 BD A5] (Eterna round: R97, puzzle: Exclusion 2)		83.3	17.9	
AAAAAACAAGGAUAUACGCAGGAGGGUUGUCUUAAUUUUUGACAUGAGGAUCACCCAUGUAGAAGGUGUUAAAA [JR_Exclusion2_Sub013] (puzzle: Exclusion 2)	220			
AGGGUGGGAGGAUAUCCAAUAUAUGACAUGAGGAUCACCCAUGUUUCCACUCGUACCUCCGGAGAAGGCCCUCCCA [Ex5 #22] (Eterna round: R97, puzzle: Exclusion 5)		21.5	22.1	
GGCAUGUAAGGAUAUGCCACUGAGUGCUUUGCGCUCAGGAAGCAGAAGGUACAUGAGGAUCACCCAUGUGAUAA [jl-ex4-4.52 ViennaUCT mod] (Eterna round: R97, puzzle: Exclusion 4)		109	714	
CCGGAAAGGAAGGAUAUGCUAGACGAAAGUCUAGCAGAAGGUCCUACAUGAGGAUCACCCAUGUGUCCUCCCGG [Eli x6 4.08] (Eterna round: R97, puzzle: Exclusion 6)		2270	270	
GCCAGAGCAGGAUAUUCAAUAAUCCACAUGAGGAUCACCCAUGUCCUGCGAAAGCAGGAGGGAGAAGGGCUCUGGC [Mat - Exclusion 5 - Eli mod - D89] (puzzle: Exclusion 5)	75.7			apparent KD of MS2 coat protein [2]: 37.7 nM; apparent KD of MS2 coat protein [3]: 81.9 nM
ACAUGAGGAUCACCCAUGUUUUUCGGGUACUCUUUUUACAGCAAGGAUAUGCAUGUUUUUUUUACGCAGAAGGUGCUUUACGUC [JR_ExcNG3_Sub067] (Eterna round: R96, puzzle: Exclusion NG 3)				apparent KD of MS2 coat protein [4]: 77.7 nM
AAUAUACAUGUAGGAUAUCUGCACGUGUAGUGCAGAGAAGGACAUGAGGAUCACCCAUGUAAUUAAGAUCAAUUAUUAAAUAUU [ENG1/3-B3] (Eterna round: R96, puzzle: Exclusion NG 1)		447	62.3	apparent KD of MS2 coat protein [4]: 32.2 nM
GCAGGUUAAGUCAGGAUAUACCUAUGGAUACAUAGGUAGAAGGGACAUGAGGAUCACCCAUGUGCCUCACCUGC [Mod of Eli - Jieux - Brourd's mod of Exclusion 4] (Eterna round: R97, puzzle: Brourd's mod of Exclusion 4)		109	26.1	
GUCAGCUCGUGAGGAUAUACAUGCGUGCUUCGGCACGAAUUUAAGAUCACAUGAGGAUCACCCAUGUAGAAGGCACGAGCUGAU [ENG2/3-A2] (Eterna round: R96, puzzle: Exclusion NG 2)		366	797	apparent KD of MS2 coat protein [4]: 896 nM
CGCGCCUUUGUCAGGAUAUUCGGGCGAGCCCGGCCGGAGAAGGGACUUGAGGAUCACCCAAGUGACGCGAAAAC [Beenusre] (Eterna round: R97, puzzle: Brourd's mod of Exclusion 4)		20.8	20.6	
UAUCGGCGGACCGAGGCUUUUUGCUCGUCUUAUGCUACGACAUGAGGAUCACCCAUGUGGUGGUGGUCCGUUGUAGU [JL ViennaUCT Bitein mod 8] (puzzle: Sensor v3, turn-off variant 2)	15.2			apparent KD of MS2 coat protein [2]: 123 nM; apparent KD of MS2 coat protein [3]: 107 nM
CUCAGUGGUGAGGAUAUGCGCGCCCAAUGGACGGUAGAAGGUACUACAUGAGGAUCACCCAUGUAGCGAAGAUU [Eternabot (L1) Solution 49] (Eterna round: R97, puzzle: Exclusion 6)		15.9	15.8	
CGGCCGUUUGUAAGGAUAUAACUAGUUGCGACCAGUUAGAAGGUACAUGAGGAUCACCCAUGUCUUCCAGUGGC [Eternabot (L1) Solution 76] (Eterna round: R97, puzzle: Brourd's mod of Exclusion 4)		16.2	15.1	
CUCCGGCGUGUAGGAUAUGGUUCCGUUUCGGUUCCAGAAGGACAUGAGGAUCACCCAUGUACCUGUCGUCGGUCGUCACCGGGC [salish99_ExNG1_r04_216] (Eterna round: R96, puzzle: Exclusion NG 1)		12.4	16.4	apparent KD of MS2 coat protein [4]: 13.2 nM
ACAAACAACAUAGGAUAUCUGCGGGUGUCAGUGCUCAUGGAUCUCCACAUGAGGAUCACCCAUGUAGAGAAGGAUGAACGCUUA [Retionzaan] (Eterna round: R96, puzzle: Exclusion NG 2)		82.4	14.1	apparent KD of MS2 coat protein [4]: 8.9 nM
AUUAGUAAUAAGGAUAUCACUAGCUUCGGCUAGUGAGAAGGUAUUACAUGAGGAUCACCCAUGUGAUUAAUUAA [E6/5-A1] (Eterna round: R97, puzzle: Exclusion 6)		446	75.3	
GCUUGUAGAGGAUAUACGAGGGCCCGAGCGGAUAACACCGCACAUGAGGAUCACCCAUGUAGAAGGCUACUAUU [JL-ex2-4.18 ViennaUCT mod] (Eterna round: R97, puzzle: Exclusion 2)		96	105	
AGCAGCCAAUCAGGAUAUACUUUCAGGUGAAGCGUCGCGGGCGAUAACAUGAGGAUCACCCAUGUGUAGAAGGGAUGCGCAAAC [Eternabot solution 39] (Eterna round: R96, puzzle: Exclusion NG 2)		45.8	41.2	apparent KD of MS2 coat protein [4]: 30.3 nM
UAGAUGGGAGGAUAUACGUAGAUGCAGGUUCGUGUGGUGCUACAUGAGGAUCACCCAUGUAGAAGGCCCGUCUU [JL-ex2-2.29 Mayanne mod] (puzzle: Exclusion 2)	13.6			
AUUAUAUAGAGAGGAUAUAGAAUAUUAUUUUAACAUGAGGAUCACCCAUGUAACCUUAUGUGUAGCUAGAAGGCUCAUUUAUUA [Title] (Eterna round: R96, puzzle: Exclusion NG 2)				apparent KD of MS2 coat protein [4]: 33.9 nM
AAUAACAGAGGAUAUACUAUUUUAUGUGUUUGUUAUUUUGAACAUGAGGAUCACCCAUGUAGAAGGCUGAGUAA [JMF 36] (puzzle: Exclusion 2)	26.8			
UUUUAGGCAGGAUAUACAUGAGGAUCACCCAUGUAAAUUUUUCGUUUAACUUGAAUGUGUAGAAGGGCCAUUUU [Ex3 #59] (Eterna round: R97, puzzle: Exclusion 3)		20.7	20.2	
GCUGCGCGAGGAUAUGCGGUUUGUGCUUUGGCCCGUGGCGUACAUGAGGAUCACCCAUGUAGAAGGCGUGUGGG [Apr-15 SS2-53] (puzzle: Exclusion 2)	18.1			
